Test results reported in PMC5548745, “Agonist-induced dimer dissociation as a macromolecular step in G protein-coupled receptor signaling” (Nature Communications, 2017).
Numbering of substitutions follows the chain as printed. In names and notes the source's numbering stands. Blank lines part the entries; values can stand above or below the molecule they belong to.

How the values were obtained:
[1] = circular dichroism of synthetic TM peptides; format: physicochemical; conditions: DDM detergent solution; lipophilic environment
Method: CD spectra were recorded using a J-810 spectropolarimeter (Jasco, Easton, MD, USA) in a 0.1 cm quartz cuvette. Far-UV CD spectra were collected over 190–260 nm. ITC measurements were carried out at 20 °C on an ITC (VP–ITC 200, MicroCal). 820 µM FZD6 TM5 and 165 µM FZD6 TM4 were dissolved in 0.5% DDM in water. 2 µl of TM5 peptide were injected into 260 µl TM4 during each titration. The ITC data were analyzed with the Origin 7.0 software.
Supplementary Figure 5: Circular dichroism (CD) and isothermal titration calorimetry (ITC) experiments for structural analysis of synthetic peptides resembling TM1, 4, 5 and mutant TM5 and of peptide-peptide interactions, related to Figure 3. Synthetic peptides (for sequence see Supplementary Fig. 9) resembling TM1 (a), 4 (b), 5 (c) and mutant TM5 (d) were used for CD experiments in triple distilled water with increasing DDM concentrations (0% DDM – black, 0.01% DDM – blue, 0.1% DDM – green and 0.5% DDM – red). (c)TM5 is unstructured in TDW and begins to gain structure at 0.1% DDM. It forms a clear α-helical structure in 0.5% DDM. The triple mutated TM5 (d) forms an α-helix in a much lower DDM concentration (0.01% DDM). […]

[2] = test system: FZD6–FZD6 dimer; assay: dcFRAP of V5-FZD6-mCherry/FZD6-GFP (FZD6 dimerization); format: cell-based, human; conditions: HEK293; for dimerization by CL-induced decrease of mobile fraction: GFP-tagged mutant with wt V5-FZD6-mCherry, anti-V5/avidin crosslinking
Method: For dual color FRAP experiments, cells grown in four compartment 35 mm glass bottom dishes were washed three times with BE buffer[19] (150 mM NaCl, 2.5 mM KCl, 10 mM HEPES, 12 mM glucose, 0.5 mM CaCl2, and 0.5 mM MgCl2). Then, the cells were incubated at RT for 30 min with biotin-conjugated goat polyclonal anti-V5 antibody (Bethyl) diluted 1:100 in BE buffer supplemented with 2.5% bovine serum albumin. For antibody-mediated cross-linking, avidin was added and incubated for 15 min and washed two times with BE buffer before the experiments were performed. In Fig. 4, dcFRAP experiments are presented that employ chemical surface crosslinking to visualize assembly of FZD6 with DVL or heterotrimeric G proteins according to previously published protocols. Live cell imaging experiments were carried out using a Zeiss 710 laser scanning microscope. Images were acquired using a 40×, 1.2 NA C-Apochromat objective and the 488 nm and the 561 nm laser lines were used to excite GFP and mCherry fluorophores, respectively. Photobleaching was performed by 100% laser illumination of a 1.80 × 1.80 µm area placed over the cell plasma membrane. Fluorescence was measured pre- and post-bleach using low-intensity illumination for a total time period of 100 s. Average pixel intensity was measured using the ZEN2013 software, corrected for background fluctuations and bleaching artifacts and normalized to pre-bleached intensity. The recovered mobile fraction (F m) was calculated as follows: F m = (I P–I 0)/(I I–I 0), where I I is the initial intensity measured prior to bleaching, I 0 is the immediate fluorescence intensity post-bleaching and I P is intensity value post-bleaching. The mobile fraction was defined by the average of the fluorescence recovery assessed between time 85–101 s (including pre-bleach measurements). We excluded experiments in which the extracellularly tagged receptors were not sufficiently immobilized after the crosslinking procedure (cutoff at 40% crosslinking-induced reduction in mobile fraction). Kinetic determination of mobile fractions of crosslinked V5-FZD6-mCherry and FZD6-GFP with WNT stimulation over time were performed in one cell culture well. Measurements for each time point were performed on separate cells.
Statistical and graphical analysis was performed using Graph Pad Prism 5 software. Data were analyzed by two-tailed t-test or one-way ANOVA with Fisher’s least significant difference post hoc analysis. Curve fitting of FRAP data was done with a two-phase association nonlinear function using the least square fit. Data for receptor titration in the presence of C59 and output to P-ERK1/2 in Fig. 6h was fit to a linear regression model. All experiments were repeated at least three times in independent experiments (not representing technical replicates). For single cell analysis (dcFRAP), the number of the individual ROIs obtained from several cells in at least three independent experiments is provided in the figure legends. Data from individual ROIs are summarized for data presentation providing the sum of independent observations. Significance levels are given as: *P < 0.05; **P < 0.01; ***P < 0.001. Data in FRAP curves and bar graphs (FRAP) are presented as mean ± s.e.m.

secondary structure in detergent (CD) [1]: structured and α-helical
Molecule: KKKVWFHAVAWGTPGFLTVMLLAMNKKK [TM4, synthetic peptide of FZD6 transmembrane helix 4]

B1: FZD6 dimer control mutant: FZD6 with D365E, R368K, Y369F (protein)
chain: HSLFTCEPITVPRCMKMAYNMTFFPNLMGHYDQSIAAVEMEHFLPLANLECSPNIETFLCKAFVPTCIEQIHVVPPCRKLCEKVYSDCKKLIDTFGIRWPEELECDRLQYCDETVPVTFDPHTEFLGPQKKTEQVQRDIGFWCPRHLKTSGGQGYKFLGIDQCAPPCPNMYFKSDELEFAKSFIGTVSIFCLCATLFTFLTFLIDVRRFRYPERPIIYYSVCYSIVSLMYFIGFLLGDSTACNKADEKLELGDTVVLGSQNKACTVLFMLLYFFTMAGTVWWVILTITWFLAAGRKWSCEAIEQKAVWFHAVAWGTPGFLTVMLLAMNKVEGDNISGVCFVGLYDLEASKFFVLLPLCLCVFVGLSLLLAGIISLNHVRQVIQHDGRNQEKLKKFMIRIGVFSGLYLVPLVTLLGCYVYEQVNRITWEITWVSDHCRQYHIPCPYQAKAKARPELALFMIKYLMTLIVGISAVFWVGSKKTCTEWAGFFKRNRKRDPISESRRVLQESCEFFLKHNSKVKHKKKHYKPSSHKLKVISKSMGTSTGATANHGTSAVAITSHDYLGQETLTEIQTSPETSMREVKADGASTPRLREQDCGEPASPAASISRLSGEQVDGKGQAGSVSESARSEGRISPKSDITDTGLAQSNNLQVPSSSEPSSLKGSTSLLVHPVSGVRKEQGGGCHSDT
modifications: left off: GFP, C-terminal, kept
notes: FZD6 with D365E, R368K, Y369F
dimerization by CL-induced decrease of mobile fraction [2]: maintained the intrinsic ability of FZD6 to form dimers

B2: FZD6 F337A mutant: FZD6 with F337A mutation on TM4 (protein)
chain: B1 chain with F319A, E347D, K350R, F351Y
dimerization by CL-induced decrease of mobile fraction [2]: exhibited a reduced ability to dimerize

B3: DVL2-MYC: overexpressed MYC-tagged DVL2 (protein, UniProt O14641 1-736, looked up)
Segment polarity protein …: MAGSSTGGGGVGETKVIYHLDEEETPYLVKIPVPAERITLGDFKSVLQRPAGAKYFFKSMDQDFGVVKEEISDDNARLPCFNGRVVSWLVSSDNPQPEMAPPVHEPRAELAPPAPPLPPLPPERTSGIGDSRPPSFHPNVSSSHENLEPETETESVVSLRRERPRRRDSSEHGAGGHRTGGPSRLERHLAGYESSSTLMTSELESTSLGDSDEEDTMSRFSSSTEQSSASRLLKRHRRRRKQRPPRLERTSSFSSVTDSTMSLNIITVTLNMEKYNFLGISIVGQSNERGDGGIYIGSIMKGGAVAADGRIEPGDMLLQVNDMNFENMSNDDAVRVLRDIVHKPGPIVLTVAKCWDPSPQAYFTLPRNEPIQPIDPAAWVSHSAALTGTFPAYPGSSSMSTITSGSSLPDGCEGRGLSVHTDMASVTKAMAAPESGLEVRDRMWLKITIPNAFLGSDVVDWLYHHVEGFPERREARKYASGLLKAGLIRHTVNKITFSEQCYYVFGDLSGGCESYLVNLSLNDNDGSSGASDQDTLAPLPGATPWPLLPTFSYQYPAPHPYSPQPPPYHELSSYTYGGGSASSQHSEGSRSSGSTRSDGGAGRTGRPEERAPESKSGSGSESEPSSRGGSLRRGGEASGTSDGGPPPSRGSTGGAPNLRAHPGLHPYGPPPGMALPYNPMMVVMMPPPPPPVPPAVQPPGAPPVRDLGSVPPELTASRQSFHMAMGNPSEFFVDVM
modifications: MYC tag
effect of altered DVL level on FZD6 dimer formation ([2]; V5-FZD6-mCherry/FZD6-GFP, pan-DVL siRNA or overexpressed DVL2-MYC): Absence of a role for DVL and G proteins in FZD6 dimer formation
